Patent US20170137467A1 (CHROMOTEK, published 2017)
Square brackets hold non-standard residues; d marks the D form. GABA = NCCCC(=O)O

T1: BC2T P1E (human)
T1 construct: position 1 library, row E
T1 peptide: Ac-EDRKAAVSHWQQ-NH2

T2: BC2T K4F (human)
T2 construct: position 4 library, row F
T2 peptide: Ac-PDRFAAVSHWQQ-NH2

T3: BC2T R3H (human)
T3 construct: position 3 library (BC2TR3X), row H
T3 peptide: Ac-PDHKAAVSHWQQ-NH2

T4: BC2T V7D (human)
T4 construct: position 7 library, row D
T4 peptide: Ac-PDRKAADSHWQQ-NH2

T5: BC2T R3W (human)
T5 construct: position 3 library (BC2TR3X), row W
T5 peptide: Ac-PDWKAAVSHWQQ-NH2

T6: BC2T K4Y (human)
T6 construct: position 4 library, row Y
T6 peptide: Ac-PDRYAAVSHWQQ-NH2

T7: BC2T A5C(Abu) (human, SMILES …)
T7 construct: position 5 library, row C(Abu) / C*
T7 peptide: Ac-PDRK[GABA]AVSHWQQ-NH2

T8: BC2T D2E (human)
T8 construct: position 2 library, row E
T8 peptide: Ac-PERKAAVSHWQQ-NH2

T9: BC2T V7P (human)
T9 construct: position 7 library, row P
T9 peptide: Ac-PDRKAAPSHWQQ-NH2

T10: BC2T P1T (human)
T10 construct: position 1 library, row T
T10 peptide: Ac-TDRKAAVSHWQQ-NH2

T11: BC2T A6E (human)
T11 construct: position 6 library (BC2TA6X), row E
T11 peptide: Ac-PDRKAEVSHWQQ-NH2

T12: BC2T P1N (human)
T12 construct: position 1 library, row N
T12 peptide: Ac-NDRKAAVSHWQQ-NH2

T13: BC2T K4W (human)
T13 construct: position 4 library, row W
T13 peptide: Ac-PDRWAAVSHWQQ-NH2

T14: BC2T D2P (human)
T14 construct: position 2 library, row P
T14 peptide: Ac-PPRKAAVSHWQQ-NH2

T15: BC2T A6H (human)
T15 construct: position 6 library (BC2TA6X), row H
T15 peptide: Ac-PDRKAHVSHWQQ-NH2

T16: BC2T A5P (human)
T16 construct: position 5 library, row P
T16 peptide: Ac-PDRKPAVSHWQQ-NH2

T17: BC2T A5K (human)
T17 construct: position 5 library, row K
T17 peptide: Ac-PDRKKAVSHWQQ-NH2

T18: BC2T A5D (human)
T18 construct: position 5 library, row D
T18 peptide: Ac-PDRKDAVSHWQQ-NH2

T19: BC2T P1Y (human)
T19 construct: position 1 library, row Y
T19 peptide: Ac-YDRKAAVSHWQQ-NH2

T20: BC2T P1F (human)
T20 construct: position 1 library, row F
T20 peptide: Ac-FDRKAAVSHWQQ-NH2


What was measured:
Assay in all cases: library pulldown, LC-MS of supernatant; ratio vs GFP-Nb control (0=captured, 1=not captured)
BC2T P1E = target: T1, BC2T P1E
Procedure, shortened: (§1)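 Unbound peptide left in supernatant after 1 h pulldown in PBS/0.01% CHAPS measured by reversed-phase LC-MS (8–30% eluent B gradient, 20 min).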

BC2T K4F = target: T2, BC2T K4F
Procedure, shortened: as §1

BC2T R3H = target: T3, BC2T R3H
Procedure, shortened: as §1

BC2T V7D = target: T4, BC2T V7D
Procedure, shortened: as §1

BC2T R3W = target: T5, BC2T R3W
Procedure, shortened: as §1

BC2T K4Y = target: T6, BC2T K4Y
Procedure, shortened: as §1

BC2T A5C(Abu) = target: T7, BC2T A5C(Abu)
Procedure, shortened: as §1

BC2T D2E = target: T8, BC2T D2E
Procedure, shortened: as §1

BC2T V7P = target: T9, BC2T V7P
Procedure, shortened: as §1

BC2T P1T = target: T10, BC2T P1T
Procedure, shortened: as §1

BC2T A6E = target: T11, BC2T A6E
Procedure, shortened: as §1

BC2T P1N = target: T12, BC2T P1N
Procedure, shortened: as §1

BC2T K4W = target: T13, BC2T K4W
Procedure, shortened: as §1

BC2T D2P = target: T14, BC2T D2P
Procedure, shortened: as §1

BC2T A6H = target: T15, BC2T A6H
Procedure, shortened: as §1

BC2T A5P = target: T16, BC2T A5P
Procedure, shortened: as §1

BC2T A5K = target: T17, BC2T A5K
Procedure, shortened: as §1

BC2T A5D = target: T18, BC2T A5D
Procedure, shortened: as §1

BC2T P1Y = target: T19, BC2T P1Y
Procedure, shortened: as §1

BC2T P1F = target: T20, BC2T P1F
Procedure, shortened: as §1

ratio (BC2T P1E)	ratio (BC2T K4F)	ratio (BC2T R3H)	ratio (BC2T V7D)	ratio (BC2T R3W)	ratio (BC2T K4Y)	ratio (BC2T A5C(Abu))	ratio (BC2T D2E)	ratio (BC2T V7P)	ratio (BC2T P1T)	ratio (BC2T A6E)	ratio (BC2T P1N)	ratio (BC2T K4W)	ratio (BC2T D2P)	ratio (BC2T A6H)	ratio (BC2T A5P)	ratio (BC2T A5K)	ratio (BC2T A5D)	ratio (BC2T P1Y)	ratio (BC2T P1F)	Binder
0.9	0.3	0.3	0.5	0.8	0.2	0.1	0.2	1	0.5	1.1	0.6	0.3	0.6	1.1	0.1	0.2	0.5	0.1	0.2	BC2 nanobody (BC2-Nb) (VHH, immobilised on agarose/sepharose beads in this assay; also called BC2 nanotrap (immobilised form); not shown: C-terminal 6xHis-tag added by pHEN6 vector) VHH: QVQLVESGGGLVQPGGSLTLSCTASGFTLDHYDIGWFRQAPGKEREGVSCINNSDDDTYYADSVKGRFTIFMDNAKDTVYLQMNSLKPEDTAIYYCAEARGCKRGRYEYDFWGQGTQVTVSS
0.8	0.7	0.7	0.9	1	0.5	0.3	0.4	1	0.7	1	0.7	0.8	0.8	0.9	0.4	0.2	0.9	0.3	0.3	BC2-NbR106S (VHH, immobilised on beads in this assay; not shown: C-terminal 6xHis-tag added by pHEN6 vector) VHH: QVQLVESGGGLVQPGGSLTLSCTASGFTLDHYDIGWFRQAPGKEREGVSCINNSDDDTYYADSVKGRFTIFMDNAKDTVYLQMNSLKPEDTAIYYCAEARGCKRGSYEYDFWGQGTQVTVSS
